# Laboratory results as given in the nanobody polyreactivity screen of Harvey et al. (2022).
# Test: yeast display, Sf9 membrane polyspecificity reagent, FACS + sequencing; frameworks hold sequencing errors
# In short: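 Using colony PCR, genes from sorted yeast display clones were amplified, then sequenced on MiSeq at 2 × 250 and filtered by CDR length. The clones had been stained with 10% biotinylated, detergent-solubilized Sf9 membrane reagent for 1 hour at 4 °C and sorted by FACS into low and high (top ~1%) gates on anti-HA and streptavidin fluorescence. Polyreactivity labels come from the gate of origin.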
row,Sequence,polyreactivity (PSR sort gate)
1,QVQLVESGGGLVQAGGSLRLSCAASGFIFVSNAMGWYRQAPGKERELVATITNGDRTYYADSVKGRFPISRDNAKNTVYLQMNSLKPEDTAVYYCNADFRAREVFLFDSWGQGTQVTVSS,low polyreactivity
2,QVQLVESGGGLVQAGGSLRLSCAASGFIFVSYSLGWYRQAPGKERELVAAIDRIGGITYYADSVKGRFTISRDNSKNTVYLQMNSLKPEDTAVYYCAAAASYATVRVGREYYWGQGTHVTVSS,low polyreactivity
3,QVQLVESGGGLVQAGGSLRLSCAASGFIFVTYAMGWYRQAPGKERELVAAITNSGGTTYYADSVKGRFTISRDNAKNTVYLQMNSLKPEDTAVYYCNKPYGAETAHREFDYWGQGTHVTVSS,low polyreactivity
4,QVQLVESGGGLVQAGGSLRLSCAASGFIFVTYAMGWYRQAPGKERELVAAITNSGGTTYYADSVKGRFTISRDNAKNTVYLQMNSLKPEDTAVYYCNKPYGAETAHREFDYWGQGTQLTVSS,low polyreactivity
5,QVQLVESGGGLVQAGGSLRLSCAASGFIFVVYAMGWYRQAPGQERELVAAITYSGGSTYYADSVKGRFTISRDNAKNTVYLQMNSLKPEDTAVYYCAAPEHDREFDYWGQGTQVTVSS,low polyreactivity
6,QVQLVESGGGLVQAGGSLRLSCAASGFIFVVYDMGWYRQAPGKERELVAGIDTSGADTYYADSVKGRFTISRDNAKNTVYLQMNRLKPEDPAVYYCAAETITDDYYEYDYWGQGTQVTVSS,low polyreactivity
7,QVQLVESGGGLVQAGGSLRLSCAASGFIFVYNDMGWYRQAPGKERELVASISNGDNTNYADSVKGRFTISRDNAKNTVYLQMNSLKPEDTAVYYCAARGTIYVLGVPARPVPDGDYWGQGTQVTVSS,low polyreactivity
8,QVQLVESGGGLVQAGGSLRLSCAASGFIFVYYAMGWYRQAPGKERELVAAISKRGGNTYYADSVKGRFTISRDNAKNTVYLQMNSLKPEDTAVYYCAADGPGHYYAELEYDYWGQGTQVTVSS,high polyreactivity
9,QVQLVESGGGLVQAGGSLRLSCAASGFIFVYYAMGWYRQAPGKERELVAAITSDVNTYYADSVKGRFTISRDNAKNTVYLQMNSLKPEDTAVYYCNADADDYRDYQDYDYWGQGTQVTVSS,low polyreactivity
10,QVQLVESGGGLVQAGGSLRLSCAASGFIFVYYARGWYRQAPGKEMELVAAISRGGSTYYADSVKGRFTISRDNAKNTVYLQMNSLKPEDTAFYYCNKVLPYGREYGYWGQGTQVTVSS,high polyreactivity
11,QVQLVESGGGLVQAGGSLRLSCAASGFIFWEYAMGWYRQAPGKERELVAAISTSGGSTYYADSVKGRFTISRDNAKNTVYLQMISLKPEDTAVYYCAVDGWDDTYFRQDMDYWGQGTQVTVSS,low polyreactivity
12,QVQLVESGGGLVQAGGSLRLSCAASGFIFWFNDMGWYRQAPGKERELVATISWSDTSTYYADSVKGRFTISRDNAKNTVYLQMTSLKPEDTAVYYCATDGRETCLPEYYWGQGTQVTVSS,low polyreactivity
13,QVQLVESGGGLVQAGGSLRLSCAASGFIFWFYAMGWYRQAPGKEREFVATISRGGSKNYADSVKGRFTISRDNAKNTVYFKINSLKAEDTEVYYCAAARSSYWKTIRAFTMDYWGQGTQVTVSS,high polyreactivity
14,QVQLVESGGGLVQAGGSLRLSCAASGFIFWLYAMGWYIQAPGKERELVASINWSGGDTYYADSVKGRFTISRDNAKNTFYLQMNSLKPEDTAVYYCTAKVLDSKSSFDYWGKGTQVTVSS,low polyreactivity
15,QVQLVESGGGLVQAGGSLRLSCAASGFIFWLYAMGWYRQAPGKERELVATITYSDGSTYYADSVKGRFTISRDNAKNTVYLQMNSLKPEDTAVYYCAAEVYYGYDYWGQGTQVTVSS,low polyreactivity
16,QVQLVESGGGLVQAGGSLRLSCAASGFIFWPYAMGWYRQAPGKESELVAAITTGGSTNYADSVKGRFTISRDNAKNTVYLQMNSLKPEDTAVYYCAKGYYFGYYEFDYWGQGTQVTVSS,high polyreactivity
17,QVQLVESGGGLVQAGGSLRLSCAASGFIFWPYVMGWYRQEPGTDRELVAAISLGDGSTYYADSVKGRFRLSRDHAKNTVYLQMNSLKPEDTAVYYCAADVTVAWYPVYPGFYYWGQGTQVTVSS,low polyreactivity
18,QVQLVESGGGLVQAGGSLRLSCAASGFIFWSYAMGWYRQAPGKERELVAAIDLTGGSTYYADSVKGRFTISRDNAKNTVYLQMNSLKPEDTAVYYCNADGDSYAFTNSDSGFDYWGQGTQVTVSS,low polyreactivity
19,QVQLVESGGGLVQAGGSLRLSCAASGFIFWSYAMGWYRQERGNEREWVAAISWSGGRTYYADSVKGRFTISRDNAKNTVYLQMNSLKPEDTAVYYCAAVKRDSSQYPALDYWGQGTQVTVSS,high polyreactivity
20,QVQLVESGGGLVQAGGSLRLSCAASGFIFWWYAMGWYRQAPGKERELVATITASVGSTNYADSVKGRFTISRDNAKNTVYLQMNSLKPEDTAVYYCATDIIGAIRDWDHTRMDYWGQGTQVTVSS,low polyreactivity
21,QVQLVESGGGLVQAGGSLRLSCAASGFIFWYYAMGWSRQAPGKERELVAAISKSGGRTYYADSVKGRFTISRDNAKNTVYLQMNSLKPEDTAVYYCARRAYLSYGYWSDYWGQGTQVTVSS,high polyreactivity
22,QVQLVESGGGLVQAGGSLRLSCAASGFIFWYYAMGWYRQAPGKERELVAAISSRGGSTYYADSVKGRFTISRDNAKNTVYLQMNSLKPEDTAVYYCNARYVYYGSGNDYWGQGTQVTVSS,high polyreactivity

row,Sequence,polyreactivity (PSR sort gate)
1,QVQLVESGGGLVQAGGSLRLSCAASGFIFWYYGMGWYRPAPGKERELVATITSGGSTTYADSVKGRFTISRDNAKNTVYLQMNSLKPEDTAVYYCAADLFYGYYSQADFEYWGQGTQVTVSS,high polyreactivity
2,QVQLVESGGGLVQAGGSLRLSCAASGFIFYAYAMGWYRQAPGKERELVAAITRSGGSTYYADSVKGRFTISRDNAKNTVYLQMNSLKPEDTAVYYCAARQRTKLGYWGQGTQVTVSS,high polyreactivity
3,QVQLVESGGGLVQAGGSLRLSCAASGFIFYDYAMGWYRQAPGKERELVAAISKRGGSTYYADSVKGRFTISRDNAKNTVYLQMNSLKPEDTAVYYCAATSYRRTGYNYWGQGTQVTVSS,high polyreactivity
4,QVQLVESGGGLVQAGGSLRLSCAASGFIFYDYDMGWYRQAPGKERELVAAITYSGGSTYYADSVKGRFTISRDNAKNTVYLQMNSLKPEDTAVYYCAAVKSRYAEAVDYYYWGQGTQVTVSS,low polyreactivity
5,QVQLVESGGGLVQAGGSLRLSCAASGFIFYGNAMGWYRQAPGKERELVATISDGGSTNYADSVKGRFTISRDNAKNTVYFQMNSLKPEDTAVYYCATEYYTPVRGYGYWGQGTQVTVSS,low polyreactivity
6,QVQLVESGGGLVQAGGSLRLSCAASGFIFYHYAMGWYRQAPGKERELVAAISWNGGRTYYADSVKGRFTISRDNAKNTVYLQMNSLKPEDTAVYYCAAPVLTSDYTLDSYYWGQGTQVTVSS,high polyreactivity
7,QVQLVESGGGLVQAGGSLRLSCAASGFIFYKNAMGWYRQAAGKERELVASITRTGDSTNYADSVKGRFTISRDNPKNTVYLQLNSLKPEDTAVYYCAKVLRRWPDPAGGMDYWGQGTQVTVSS,high polyreactivity
8,QVQLVESGGGLVQAGGSLRLSCAASGFIFYKNAMGWYRQAPGKERELVADISKRGASTYYADSVKGRFTISRDNAKNTVYLQMNSLKPEDTAVYYCAAGYYRASTTVTHGGIEGDSWGQGTQVTVSS,high polyreactivity
9,QVQLVESGGGLVQAGGSLRLSCAASGFIFYKYAMGWYRQAPGKERELVAAISRRGGNTYYADSVKGRFTISRDNAKNTVYLQMNSLKPEDTAVYYCIAVLYFPYEYWGQGTQVTVSS,high polyreactivity
10,QVQLVESGGGLVQAGGSLRLSCAASGFIFYLYAMGWYRQAPGKERELVAAISSSGGGTYYADSVKGRFTISRDNAKNTVYLQMNSLKPEDTAVYYCNVPLSYRSEYDYWGQGTQVTVSS,high polyreactivity
11,QVQLVESGGGLVQAGGSLRLSCAASGFIFYLYAMGWYRQAPGKERELVAAISWSGGITYYADSVKGRFTISRDNAKNTVYLQMNSLKPEDTAVYYCNAVGASASDGDYWGQGTQVTVSS,high polyreactivity
12,QVQLVESGGGLVQAGGSLRLSCAASGFIFYLYAMGWYRQAPGTERELVAAISSSGGGTYYADSVKGRFTISRDNAKNTVYLQMNSLKPEDTAVYYCNVPLSYRSEYDYWGQGTQVTVSS,high polyreactivity
13,QVQLVESGGGLVQAGGSLRLSCAASGFIFYNALGWYRQAPGKERELVAAISSGGNTNYADSVKGRFTISRDNAKNTVYLQMNSLKPEDTAVYYCNAGLYQYDGWANYIRYDYWGQGTQVTVSS,low polyreactivity
14,QVQLVESGGGLVQAGGSLRLSCAASGFIFYNYAMGWYRQAPGKERELVAAISASGGRTYYADSVKGRFTISRDNAKNTVYLQMNRLKPEETAVYYCNARVNYKGYDYWGQGTQVTVSS,high polyreactivity
15,QVQLVESGGGLVQAGGSLRLSCAASGFIFYNYAMGWYRQAPGKVRELVAAISASGGRTYYADSVKGRFTISRDNAKNTVYLQMNRLKPEDTAVYYCNARVNYKGYDYWGQGTQVTVSS,high polyreactivity
16,QVQLVESGGGLVQAGGSLRLSCAASGFIFYNYDMGWYRQAPGKERELVAAITGGGSTNYADSVKGRFTISRDNAKNTVYLKMNSLKPEDTAVYYCAAEEGPPCYRYDYWGQGTQVTVSS,low polyreactivity
17,QVQLVESGGGLVQAGGSLRLSCAASGFIFYPNPMGWYRQAPGKERELVAAITSGGSTYADSVKGRFTISRDNAKNTVYLQMNSLKPEDTAVYYCAAVDTSIITFWYIASDGFDYWGQGTQVTVSS,low polyreactivity
18,QVQLVESGGGLVQAGGSLRLSCAASGFIFYPYAMGSYRQAPGKERELVAAITSSGGSTYYADSVKGRFTISRDNAKNTVYLQMNSLKPEDTAVYYCAAYTSYYGTIIAFRYYYWGQGTQVTVSS,high polyreactivity
19,QVQLVESGGGLVQAGGSLRLSCAASGFIFYQYAMGWYRQAPGKERELVAAISWGGGSTYYADSVKGRFTISRDNAKNTVYLQMNSLKPEDTAVYYCAATGLGWHSYHEYDYWGQGTQVTVSS,low polyreactivity
20,QVQLVESGGGLVQAGGSLRLSCAASGFIFYQYAMGWYRQAPGKERELVATISFRGGRTYYADSVKGRFTISRDNAKNTVYLQMNSLKPEDTAVYYCNAKRVSSRFYKWDYYWGQGTEVTVSS,high polyreactivity
21,QVQLVESGGGLVQAGGSLRLSCAASGFIFYRNTMGWYRQAPGKERELVATISRRGGSTYYADSVKGRFTISRDNAKHTVYLQMNSLKPEDTAVYYCNADQEYSRPRYGMDYWGQGTQVTVSS,high polyreactivity
